Data reported in patent publication US20230381350A1 (PRECIRIX N V, published 2023).
Blank lines part the entries; values can stand above or below the binder they belong to.

How the values were obtained:
[1] = molecular target: T1, human FAP recombinant protein (human, UniProt Q12884 26-760); experiment: bio-layer interferometry (Octet RED96), biotinylated human FAP on streptavidin sensor, kinetic titration, 25 °C
T1 construct: The protein was biotinylated with sulfo-NHS-SS-biotin for bio-layer interferometry; also called extracellular domain of human FAP with N-terminal His6-tag
T1 sequence: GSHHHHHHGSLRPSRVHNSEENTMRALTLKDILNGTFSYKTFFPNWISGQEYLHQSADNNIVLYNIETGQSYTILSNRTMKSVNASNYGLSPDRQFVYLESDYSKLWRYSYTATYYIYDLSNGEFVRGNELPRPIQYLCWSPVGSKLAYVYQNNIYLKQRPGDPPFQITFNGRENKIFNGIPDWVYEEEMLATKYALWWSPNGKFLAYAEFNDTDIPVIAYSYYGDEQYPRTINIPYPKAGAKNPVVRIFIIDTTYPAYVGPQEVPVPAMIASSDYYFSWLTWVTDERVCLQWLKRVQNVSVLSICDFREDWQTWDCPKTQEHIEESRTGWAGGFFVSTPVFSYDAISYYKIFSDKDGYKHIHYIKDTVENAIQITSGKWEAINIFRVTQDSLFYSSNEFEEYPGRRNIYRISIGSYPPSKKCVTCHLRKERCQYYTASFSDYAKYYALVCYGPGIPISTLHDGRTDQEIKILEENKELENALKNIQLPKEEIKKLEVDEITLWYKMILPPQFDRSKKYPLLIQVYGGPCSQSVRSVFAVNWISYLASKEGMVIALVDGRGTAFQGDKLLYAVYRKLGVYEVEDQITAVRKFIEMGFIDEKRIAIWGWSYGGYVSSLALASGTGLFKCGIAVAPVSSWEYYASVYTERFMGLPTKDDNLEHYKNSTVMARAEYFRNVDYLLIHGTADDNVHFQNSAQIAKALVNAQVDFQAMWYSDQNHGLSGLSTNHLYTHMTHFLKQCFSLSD
Experimental: (§1) The kinetic parameters of antigen binding by purified VHHs were determined via bio-layer interferometry with an Octet RED96 instrument (ForteBio). The assay was performed at 25° C. with shaking at 1000 rpm. Streptavidin coated SA sensors were equilibrated in assay buffer (HBS supplemented with 0.5% BSA, 0.1% Tween), before loading for 5 min with the biotinylated FAP recombinant protein at a concentration of 5 μg/ml. His₆-tagged VHHs were analyzed in a threefold serial dilution from 30 nM to 0.4 nM in assay buffer (except for VHH B3 binding murine FAP recombinant protein, for which a fivefold serial dilution from 1000 nM to 1.6 nM was employed). First the baseline was measured for 180 s in assay buffer, followed by 5 subsequent association phases of 180 s with the VHH preparations in increasing order of concentration, with 75 s intermediate dissociation phases in assay buffer in between, and a final dissociation phase in assay buffer of 30 min. In every assay a reference sensor loaded with FAP recombinant protein was included that was incubated in assay buffer during the association phases.
(§2) Binding curves were exported and analyzed using the BIAevaluation analysis software (GE Healthcare). First the y-axes of the different curves were aligned to the median of the last 5 s of the baseline measurement. Subsequently, the sensorgram of the reference sensor was subtracted from all other sensorgrams. The resulting binding curve was fitted using a general fit with the ‘kinetic titration with drift’ binding model (1:1 (antigen:analyte) model; Karlsson, R. et al (2006), Analyzing a kinetic titration series using affinity biosensors. Analytical Biochemistry 349: 136-147), with Rmax fitted global, RI local and drift set to 0.
(§3) Table 7 gives an overview of the kinetic parameters of antigen binding for His₆-tagged VHHs B1, B2, B3 and B4 (SEQ ID NO: 21-24), as determined by bio-layer interferometry with biotinylated human or murine FAP recombinant protein that was loaded on the sensor.

[2] = molecular target: T2, murine FAP recombinant protein (murine, UniProt P97321 26-761); experiment: bio-layer interferometry (Octet RED96), biotinylated murine FAP on streptavidin sensor, kinetic titration, 25 °C
T2 construct: The protein was biotinylated for bio-layer interferometry; also called extracellular domain of murine FAP with N-terminal His6-tag
T2 sequence: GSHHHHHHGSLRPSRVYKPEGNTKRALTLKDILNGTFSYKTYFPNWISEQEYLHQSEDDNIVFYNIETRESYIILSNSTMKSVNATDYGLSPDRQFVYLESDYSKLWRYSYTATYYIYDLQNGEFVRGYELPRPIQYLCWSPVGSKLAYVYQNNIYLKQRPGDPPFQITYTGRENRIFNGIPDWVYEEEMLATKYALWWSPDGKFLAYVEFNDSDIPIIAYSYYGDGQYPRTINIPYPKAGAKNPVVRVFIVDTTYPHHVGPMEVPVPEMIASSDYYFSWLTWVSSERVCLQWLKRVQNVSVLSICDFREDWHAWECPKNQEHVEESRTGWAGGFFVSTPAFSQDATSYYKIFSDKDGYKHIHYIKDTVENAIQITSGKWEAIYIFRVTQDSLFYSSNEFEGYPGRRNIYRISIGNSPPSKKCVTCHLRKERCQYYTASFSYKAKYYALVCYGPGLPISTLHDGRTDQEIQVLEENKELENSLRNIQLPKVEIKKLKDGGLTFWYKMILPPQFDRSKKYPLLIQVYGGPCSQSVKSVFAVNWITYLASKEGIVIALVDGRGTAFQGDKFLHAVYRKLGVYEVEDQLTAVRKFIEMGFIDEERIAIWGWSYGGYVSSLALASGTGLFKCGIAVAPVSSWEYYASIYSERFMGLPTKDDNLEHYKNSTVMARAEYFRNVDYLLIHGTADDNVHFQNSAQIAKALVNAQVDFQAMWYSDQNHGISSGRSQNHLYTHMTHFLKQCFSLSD
Experimental: as §1, §2, §3

Kd [1]: 0.0744 nM
koff [1]: 3.1e-05 s⁻¹
kon [1]: 420000 M⁻¹ s⁻¹
Kd [2]: 24.3 nM
koff [2]: 0.0082 s⁻¹
kon [2]: 340000 M⁻¹ s⁻¹
B1: His6-tagged VHH B2 (VHH)
VHH: DVQLVESGGGLVQAGGSLRLSCAVSGSISSANSMGWYRQAPGKQRDVVAGLTTGGRSHYADSVKGRFTISRDNAKNTVYLQMNSLKAEDTAVYYCNLWPPVQGYWGQGTQVTVSS
notes: Purified, unlabelled; used in bio-layer interferometry; also called B2 with His6-tag

Kd [2]: 0.512 nM
koff [2]: 0.00056 s⁻¹
kon [2]: 1.1e+06 M⁻¹ s⁻¹
B2: His6-tagged VHH B4 (VHH)
VHH: DVQLVESGGGLVQVGGSLRLSCVASGFTFSSYYMSWVRQAPGKGLEWVASIYADGDMTYYADSVRGRFTISRDNAKNTLYLQMNSLKSEDTAVYYCAKDPLPPYHVNQGTQVTVSS
notes: Purified, unlabelled; used in bio-layer interferometry; also called B4 with His6-tag
